The subject of data set [1] is U251 human glioma cells. Nature of the data set: Targeted glioma cell death in vitro. It counts as cell-based. The note with it: single dose. The protocol: (§1) All treatments, N=3. FIG. 27A. Comparing cytotoxicity to HER2+ (MDAMB-435) and HER2− (MDA-MB-231) cells in separate cultures. Left, Relative survival (as % of untreated cells) on day 3 of treatment. Right, Micrograph of live cells after treatment. Control, mock (HBS) treatment. FIG. 27B, Receptor specificity of cytotoxicity. […] FIG. 27C, Toxicity to cells displaying differential HER2. Cytotoxicities from HerDox titrations were assessed on each cell line by metabolic assay and confirmed by crystal violet stain on day 3 of treatment. CD50 values (shown in log scale) were determined by non-linear regression analyses of HerDox killing curves using GraphPad Prism. The relative HER2 level of each cell line is shown next to each CD50 value. FIG. 27D, Targeting in a mixed MDA-MB-435(HER2+,GFP−)/MDA-MB-231(HER2−,GFP+) cell culture. Survival was determined by calculating the relative doubling time (DT) of experimental (exp) cells normalized by mock-treated (con) cells based on crystal violet stains (total cells) and GFP fluorescence (MDAMB-231 cells), and applying DTMDA-MB-435=DTTotal-DTMDA-MB-231 as previously described. Relative survival is shown for Day 2 of treatment. […] U251 cells were treated once with the indicated HerDox (and competitive inhibitor where indicated) or Dox doses and measured for cell survival at the indicated time points after treatment. * P<0.05 compared to Mock. […]

The test system of data set [2] is MDA-MB-435(HER2+,GFP−)/MDA-MB-231(HER2−,GFP+) cell culture. Nature of the data set: Targeting in a mixed HER2+/HER2− cell culture. The class given is cell-based, human. As to conditions: 0.5 uM, day 2. The method, then: as §1
In data set [3] the test system is MDA-MB-435 tumors. Nature of the data set: HerDox/Dox tumor targeting, biodistribution and pharmacokinetics by fluorescence imaging. The method, then: Tumor-bearing mice were injected with 0.02 mg/kg (final Dox dose) of HerDox or Dox via the tail vein and imaged with a custom small animal imager. FIG. 19A, Imaging of live mice after TV delivery of HerDox. Time points are shown as minutes after injection. Tumors are indicated by arrows. FIG. 19B, Imaging of tumors and tissues harvested at 3 h after injection of HerDox or Dox. Fluorescence signal from Dox is pseudo-colored according to the color bar, with a shift toward 100 indicating high fluorescence intensity.
FIG. 29A, Live mouse imaging of HerDox at indicated time points after injection. Arrows, Tumors. 29B-29C, Comparative biodistribution of HerDox and Dox in tissues harvested at 3 h post-injection. FIG. 29B, Imaging of biodistribution in harvested tissues. Pseudocolored FI corresponds to the color bar. Max, highest FI. FIG. 29C, Quantification of HerDox and Dox biodistribution, showing Dox FI/tissue. FIG. 29D. Comparative pharmacokinetics of HerDox and Dox in mice with tumors expressing differential HER2. Tissues were harvested from independently injected mice euthanized at indicated time points after injection and FI/tissue acquired using a small animal imaging system as described herein.
Mice received a single tail vein injection of Dox alone or the complex (HerDox) (0.02 mg/kg with respect to Dox conc) and were imaged live using a customized macro-illumination and detection system.
Heart rate and body temperature were monitored. […] Three beats were averaged for each measurement.
A customized macro-illumination and detection system was used for in vivo and tissue imaging. Dox was excited with the 488 nm line of a Coherent Innova ArKr laser. Laser light (300 mW) was directed into a light-tight box via mirrors and expanded by an engineered circular tophat diffuser (Thorlabs ED1-C20) to a uniform circular beam of approximately 15 cm in diameter. The incidence angle to the vertical plane was approximately 150. Fluorescence light was collected via a telecentric lens (Melles-Griot 59LGG925 base lens with a 59LGL428 attachment lens) that can operate at f/#2, has a magnification of 0.9, working distance of 257 mm and a depth of field of 81.5 mm. A bandpass filter (580 nm with a 50 nm bandwidth) was used in the emission pathway to reject the excitation light. Images showing FI were collected with a cooled CCD camera (Hamamatsu ORCA-ER). Where indicated, a Maestro imager was used (Cedars-Sinai Imaging Core Facility). ImageJ was used to calculate average fluorescence intensities of the overall region of each selected tissue.
MDA-MB-435 tumor-bearing mice were imaged live after a single tail vein injection of HerDox, in order to visualize tumor-targeting ability in vivo.

Setting [4] is: maximum FI, ˜3 h after injection.
The mark [5] stands for this setting: single tail vein injection, 0.02 mg/kg Dox.

“Also recorded” adds a separate entry of the source.

As to `COc1cccc2c1C(=O)c1c(O)c3c(c(O)c1C2=O)C[C@@](O)(C(=O)CO)C[C@@H]3O[C@H]1C[C@H](N)[C@H](O)[C@H](C)O1.Cl` [Dox, Doxorubicin-HCl, reference compound], the cell death in data set [1] is listed as 75-80%. Further, the “cell growth in mixed cell culture” value in data set [2] is recorded as “reduced efficacy”. For the same molecule, the “fluorescence in the lungs and skeletal muscle” value in data set [3] (harvested ˜3 h after injection) is listed as “Lower levels of fluorescence”. Moreover, in data set [3] (mouse, in vivo), the “fluorescence in the kidneys” value was “detectable fluorescence”, the “fluorescence in the liver” value is on record as “detectable fluorescence”, the “fluorescence in the tumors” value is “detectable fluorescence” and the “tumor accumulated Dox lower compared to HerDox” value came out at 1000 fluorescence units.

B1: HerDox: self-assembled nanoparticle of oligonucleotide duplex, doxorubicin and HerPBK10 (conjugate)
chain: LPPRLKEMKSQESAAGSKLVLRCETSSEYSSLRFKWFKNGNELNRKNKPQNIKIQKKPGKSELRINKASLADSGEYMCKVISKLGNDSASANITIVESNEIITGMPASTEGAYVSSESPIRISVSTEGANTSSSTSTSTTGTSHLVKCAEKEKTFCVNGGECFMVKDLSNPSRYLCKCQPGFTGARCTENVPMKVQNQEKAEELYMRRAAMYEEGPPPSYESVVSAAPVAAALGSPFDAPLDPPFVPPRYLRPTGGRNSIRYSELAPLFDTTRVYLVDNKSTDVASLNYQNDHSNFLTTVIQNNDYSPGEASTQTINLDDRSHWGGDLKTILHTNMPNVNEFMFTNKFKARVMVSRLPTKDNQVELKYEWVEFTLPEGNYSETMTIDLMNNAIVEHYLKVGRQNGVLESDIGVKFDTRNFRLGFDPVTGLVMPGVYTNEAFHPDIILLPGCGVDFTHSRLSNLLGIRKRQPFQEGFRITYDDLEGGNIPALLDVDAYQASLKDDTEQGGGGAGGSNSSGSGAEENSNAAAAAMQPVEDMNDHAIRGDTFATRAEEKRAEAEAAAEAAAPAAQPEVEKPQKKPVIKPLTEDSKKRSYNLISNDSTFTQYRSWYLAYNYGDPQTGIRSWTLLCTPDVTCGSEQVYWSLPDMMQDPVTFRSTRQISNFPVVGAELLPVHSKSFYNDQAVYSQLIRQFTSLTHVFNRFPENQILARPPAPTITTVSENVPALTDHGTLPLRNSIGGVQRVTITDARRRTCPYVYKALGIVSPRVLSSRTFKKKKKKKKKK
Consider B1, for which the cell death in data set [1] is reported as 96-99%. Moreover, the “cell growth in mixed cell culture” value in data set [2] is listed as “substantially reduced HER2+ but not HER2− cell growth”. In addition, in data set [3] (harvested ˜3 h after injection), the “fluorescence in heart, spleen, lungs, and skeletal muscle” value was “did not exhibit any fluorescence; also recorded: no detectable fluorescence”; the “fluorescence in the kidneys” value is “barely detectable”; the “fluorescence in the liver” value was “substantially lower levels of fluorescence”; the “fluorescence in the tumors” value is “intense fluorescence”. Also, in data set [3] (setting [4]), the “kidney FI lower than tumors” value was determined as 65% and the “liver FI lower than tumors” value worked out at 45%. Besides, the “time of kidney entry” value in data set [3] (pharmacokinetics, single i.v. injection) was at most 10 min. Moreover, in data set [3] (setting [5]), the “time detectable in the tumors after injection” value is listed as “up to 100 min” and the “time of accumulation at the tumors after injection” value is at most 20 min. The “tumor accumulation higher compared to normal tissue” value in data set [3] (up to 24 h, heart, liver, muscle, spleen, lung, kidneys) is 500-1000 fluorescence units higher/tissue.

(Values after patent US11795454B2, “Targeted delivery system” (Cedars-Sinai Medical Center, priority 2009, dated 2023).)
